Legend:
[1] = Michaelis-Menten constant for luciferin of purified mutants; format: biochemical; conditions: purified enzyme
Source text: Substrate binding was screened by measuring an apparent composite Km (see Example 2) for luciferin and ATP. […] The Km for luciferin rose while the Km for ATP declined (Table 3). The reason for this change is unknown, although it can be speculated that more efficient release of oxyluciferin or luciferin inhibitors could lead to more rapid enzyme turnover.
(§1) Protein purification: Four mutants that are described herein (Luc[T249M], Luc49-7C6, Luc78-0B10, and Luc90-1B5) were purified using a previously published procedure (Hastings et al., 1996).

[2] = Retention of luminescence activity at pH 4.5 and 48° C.; format: physicochemical; conditions: pH 4.5 and 48° C. (FIG. 54B)
Experimental: Three populations of random mutants were produced using clone Luc90-1B5 as a template. These three populations were screened on the robot as experiments 114, 115, and 117. […] These screening conditions were biased to select clones that have increased retention of luminescence activity over time at pH 4.5 at 48° C. and increased luminescence activity when assayed at pH 7.1 with 10 μM ATP. Seventeen clones from experiment 114, seven clones from experiment 115, and ten clones from experiment 116 were shuffled together using sPCR and selected mutants from this screen were run on the robot as experiment 117. Eighteen clones were selected from experiment 117.

[3] = Thermostability (half-life, retained activity) of luciferases incubated in aqueous solution at different temperatures; format: physicochemical; conditions: for loss in activity: aqueous solution
Source text: As defined herein, a “thermostable” enzyme, e.g., a luciferase, or an enzyme which has “thermostability”, is an enzyme which under certain conditions, e.g., at certain temperature, in aqueous solution and/or for certain periods of time, has an increased retention of activity relative to a reference enzyme. For example, for a thermostable luciferase, a reference luciferase may be native wild-type luciferase or recombinant wild-type luciferase. Preferably, for beetle luciferases, the activity is luminescence under conditions of saturation with luciferin and ATP. One measure of thermostability of an enzyme is the half-life of the enzyme in an aqueous solution (the time over which 50% of the activity is lost) at a stated temperature.
as §1
[…] Enzyme stability was determined from diluted proteins incubated at different temperatures, and aliquots were removed at different time points. A linear regression of the natural log of the luminescence and time was calculated. Half-life was calculated as the 1n(0.5)/slope of the regression.

Km [1]: 2200 nM
B1: Luc90-1B5: mutant luciferase, SEQ ID NO:24 (protein)
chain: MADKNILYGPEPFYPLEDGTAGEQMFDALSRYADIPGCIALTNAHTKENVLYEEFLKLSCRLAESFKKYGLKQNDTIAVCSENGLQFFLPVIASLYLGIIVAPVNDKYIERELIHSLGIVKPRIVFCSKNTFQKVLNVKSKLKSIETIIILDLNEDLGGYQCLNNFISQNSDSNLDVKKFKPYSFNRDDQVALIMFSSGTTGLPKGVMLTHKNIVARFSLAKDPTFGNAINPTTAILTVIPFHHGFGMMTTLGYFTCGFRVVLMHTFEEKLFLQSLQDYKVESTLLVPTLMAFLAKSALVEKYDLSHLKEIASGGAPLSKEIGEMVKKRFKLNFVRQGYGLTETTSAVLITPKGDAKPGSTGKIVPFHAVKVVDPTTGKILGPNEPGELYFKGPMIMKGYYNNEEATKAIIDNDGWLRSGDIAYYDNDGHFYIVDRLKSLIKYKGYQVAPAEIEGILLQHPYIVDAGVTGIPDEAAGELPAAGVVVQTGKYLNEQIVQDYVASQVSTAKWLRGGVKFLDEIPKGSTGKIDRKVLRQMFEKHTNG
modifications: Mutant luciferase
half-life [2]: about 3 minutes
increased thermostability compared to LucPpe2 [T249M] [3]: about 35 °C
stability ([3]; 22° C. over several weeks, pH 6.5 (FIG. 16B)): stable
activity loss ([3]; 65° C. over several hours, citrate buffer at pH 6.5 (FIG. 16A)): very little activity loss
half-life ([3]; 65° C., same buffer conditions as Table 2 (FIG. 16A)): 27 h
activity maintained ([3]; after 120 hours (5 days) at 50° C., 25 mol/L citrate pH 6.5, 150 mmol/L NaCl, 1 mg/mL BSA, 0.1 mmol/L EDTA, 5% glycerol): 75%
loss in activity ([3]; 2 hours at 50° C.): 5%
loss in activity ([3]; 5 hours at 65° C.): 5%
loss in activity ([3]; over 6 weeks at 22° C.): 5%

Source: patent US8030017B2, “Thermostable luciferases and methods of production” (Promega Corporation, priority 1997, dated 2011)
